Assay results: patent US20020141999A1 (IMMUNEX, published 2002)
Blank lines part the entries; values can stand above or below the binder they belong to.

Experiments:
[1] = biological target: T1, human CD7, full length, on cells (human, UniProt P09564 26-240); experiment: Fc fusion binding to transfected cells (Example 5)
T1 construct: On transfected COS-1 or CV-1/EBNA cells, and endogenous on Jurkat, KG-1 and NK cells; also called HuCD7
T1 sequence: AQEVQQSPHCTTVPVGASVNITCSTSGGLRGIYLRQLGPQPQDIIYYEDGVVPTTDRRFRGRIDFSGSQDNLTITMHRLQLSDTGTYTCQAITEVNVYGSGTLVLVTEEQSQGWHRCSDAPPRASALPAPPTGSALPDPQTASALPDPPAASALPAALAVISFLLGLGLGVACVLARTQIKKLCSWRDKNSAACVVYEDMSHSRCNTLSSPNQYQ

[2] = biological target: T2, murine CD7, full length, on cells (mouse, UniProt P50283 24-210); experiment: HuK12-Fc on transfected COS-1 cells, 125I anti-human Fc, phosphorimager
T2 construct: On transfected COS-1 cells; For the proliferation read-out it is endogenous on BALB/c lymph node cells; also called MuCD7; mouse CD7
T2 chain: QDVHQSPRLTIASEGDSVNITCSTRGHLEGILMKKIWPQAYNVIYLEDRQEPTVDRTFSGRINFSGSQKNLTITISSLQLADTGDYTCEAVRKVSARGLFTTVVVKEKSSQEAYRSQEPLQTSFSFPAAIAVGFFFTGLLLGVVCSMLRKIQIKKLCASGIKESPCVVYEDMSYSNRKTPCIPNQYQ
Method: COS-1 cells were transfected with an expression vector encoding full length HuCD7 (human CD7), HuCD7-TR (human CD7 containing an internal deletion of the 36 amino acid tandem repeat), MuCD7 and vector only cDNA using DEAE-Dextran. However, any of a large number of expression vectors that are commercially available from numerous companies (e.g., Clontech Inc., Palo Alto, Calif.) could also be used to express the desired cDNAs. Two days post transfection the cells were assayed for the capacity to bind HuK12-Fc as previously described for other Fc fusion proteins (Lyman et al.,1993, Cell 75:1157-1167) with the following modifications. The binding media (RPMI 1640, 1%FBS, 0.02% NaAzide, 20 mM HEPES, pH7.2) was modified to include […] MnCl₂. In some experiments, the transfected cells were incubated with zero, 20 ug/ml or 2 mg/ml of Con A in BM/MM prior to binding with the Fc proteins. Following incubation for 30 minutes at room temperature and the continued presence of Con A, 1 ug/ml of either HuK12-Fc or MuK12-Fc was then added to the appropriate slides. Binding of the Fc protein was detected with [¹²⁵I] mouse anti-Human Fc antibody as previously described (Lyman, 1993). After binding the iodinated antibody, the cells were washed and then the radioactivity was quantitated by Storm Phosphorimager. […]

[3] = biological target: T1, human CD7, full length, on cells; experiment: preliminary cell binding experiments on Jurkat and KG-1 cells
[4] = biological target: T3, murine K12, full length, on transfected cells (mouse, UniProt Q9JL59 29-212); experiment: Fc fusion binding to transfected cells, detected with 125I anti-human Fc
T3 construct: also called mouse K12; murine homologue of K12
T3 sequence: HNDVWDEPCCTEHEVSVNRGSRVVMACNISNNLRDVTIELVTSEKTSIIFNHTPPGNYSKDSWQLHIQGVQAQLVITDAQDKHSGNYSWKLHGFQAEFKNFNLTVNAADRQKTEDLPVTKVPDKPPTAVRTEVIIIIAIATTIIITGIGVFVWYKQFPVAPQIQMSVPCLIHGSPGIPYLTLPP

[5] = biological target: T4, human K12, full length, on transfected cells (human, UniProt Q8WVN6 29-248); experiment: as above
T4 construct: also called SECTM1
T4 sequence: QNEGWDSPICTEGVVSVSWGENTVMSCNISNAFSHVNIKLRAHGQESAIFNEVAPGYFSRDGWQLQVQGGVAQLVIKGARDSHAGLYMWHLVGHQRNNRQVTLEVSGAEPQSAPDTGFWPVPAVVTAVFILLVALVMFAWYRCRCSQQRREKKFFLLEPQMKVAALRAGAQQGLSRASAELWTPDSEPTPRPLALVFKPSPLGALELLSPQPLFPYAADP

binding result [1]: no binding
B1: mouse K12-Fc fusion protein (extracellular domain of murine K12 fused to the Fc portion of human IgG1) (Fc fusion)
chain: HNDVWDEPCCTEHEVSVNRGSRVVMACNISNNLRDVTIELVTSEKTSIIFNHTPPGNYSKDSWQLHIQGVQAQLVITDAQDKHSGNYSWKLHGFQAEFKNFNLTVNAADRQKTEDLPVTKVPDKPPTAVRTE
notes: Exists as a dimer in solution; also called MuK12-Fc; not shown: Fc portion of human IgG1, as described in U.S. Pat. No. 5,457,035

fold less binding than to full length HuCD7 [2]: ~4 fold
Ka [3]: ~1e+08 M⁻¹
B2: human K12-Fc fusion protein (extracellular domain of human K12 fused to the Fc portion of human IgG1) (Fc fusion)
chain: QNEGWDSPICTEGVVSVSWGENTVMSCNISNAFSHVNIKLRAHGQESAIFNEVAPGYFSRDGWQLQVQGGVAQLVIKGARDSHAGLYMWHLVGHQRNNRQVTLEVSGAEPQSAPDTG
notes: Exists as a dimer in solution; No linker or junction is described; also called HuK12-Fc; HuK12Fc; not shown: Fc portion of human IgG1, as described in U.S. Pat. No. 5,457,035

binding result [4]: no binding
B3: human CD7-Fc fusion protein (Fc fusion)
chain: AQEVQQSPHCTTVPVGASVNITCSTSGGLRGIYLRQLGPQPQDIIYYEDGVVPTTDRRFRGRIDFSGSQDNLTITMHRLQLSDTGTYTCQAITEVNVYGSGTLVLVTEEQSQGWHRCSDAPPRASALPAPPTGSALPDPQTASALPDPPAASALP
notes: not shown: Fc portion of the CD7-Fc fusion is not described

binding result [5]: no binding
B4: murine CD7-Fc fusion protein (Fc fusion)
chain: QDVHQSPRLTIASEGDSVNITCSTRGHLEGILMKKIWPQAYNVIYLEDRQEPTVDRTFSGRINFSGSQKNLTITISSLQLADTGDYTCEAVRKVSARGLFTTVVVKEKSSQEAYRSQEPLQTSFSFP
notes: also called mouse CD7-Fc; not shown: Fc portion of the CD7-Fc fusion is not described
